T1: DLG3_1, Q92796
T1 sequence (Q92796 125-227, limits assumed, looked up): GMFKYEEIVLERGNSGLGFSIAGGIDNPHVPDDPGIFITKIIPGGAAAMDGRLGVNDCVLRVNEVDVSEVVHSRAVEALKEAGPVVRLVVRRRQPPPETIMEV

T2: DFNB31_3, Q9P202
T2 sequence (Q9P202 811-907, limits assumed, looked up): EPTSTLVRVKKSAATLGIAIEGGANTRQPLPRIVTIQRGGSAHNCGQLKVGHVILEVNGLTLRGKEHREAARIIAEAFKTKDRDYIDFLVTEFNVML

T3: SNTA1, Q13424
T3 sequence (Q13424 82-180, limits assumed, looked up): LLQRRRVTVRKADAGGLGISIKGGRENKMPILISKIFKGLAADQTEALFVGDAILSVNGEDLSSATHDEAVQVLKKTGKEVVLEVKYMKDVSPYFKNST

T4: PDZD2_2, O15018
T4 sequence (O15018 329-429, limits assumed, looked up): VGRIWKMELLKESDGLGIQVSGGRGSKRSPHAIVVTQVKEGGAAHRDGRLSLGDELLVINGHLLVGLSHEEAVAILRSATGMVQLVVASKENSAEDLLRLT

T5: NHERF3_4, Q5T2W1
T5 sequence (Q5T2W1 373-468, limits assumed, looked up): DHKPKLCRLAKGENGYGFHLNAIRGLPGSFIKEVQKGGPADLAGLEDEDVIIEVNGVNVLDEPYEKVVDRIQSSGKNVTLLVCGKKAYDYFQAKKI

T6: MPP6, Q9NZW5
T6 sequence (Q9NZW5 125-219, limits assumed, looked up): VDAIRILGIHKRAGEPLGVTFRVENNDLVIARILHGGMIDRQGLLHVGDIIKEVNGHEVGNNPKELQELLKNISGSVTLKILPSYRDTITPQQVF

T7: SIPA1L2, Q9P2F8
T7 sequence (Q9P2F8 945-1036, limits assumed, looked up): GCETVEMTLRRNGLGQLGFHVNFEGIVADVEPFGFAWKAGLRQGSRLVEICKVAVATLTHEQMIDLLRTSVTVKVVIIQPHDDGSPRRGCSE

T8: LIN7A, O14910
T8 sequence (O14910 103-200, limits assumed, looked up): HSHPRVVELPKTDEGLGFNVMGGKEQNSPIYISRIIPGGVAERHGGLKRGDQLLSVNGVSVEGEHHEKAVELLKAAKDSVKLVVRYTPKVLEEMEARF

T9: MPDZ_5, O75970
T9 sequence (O75970 695-796, limits assumed, looked up): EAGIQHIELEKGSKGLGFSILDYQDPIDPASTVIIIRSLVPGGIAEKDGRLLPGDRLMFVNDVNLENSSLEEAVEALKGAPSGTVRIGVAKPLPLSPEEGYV

T10: PCLO, Q9Y6V0
T10 sequence (Q9Y6V0 4491-4600, limits assumed, looked up): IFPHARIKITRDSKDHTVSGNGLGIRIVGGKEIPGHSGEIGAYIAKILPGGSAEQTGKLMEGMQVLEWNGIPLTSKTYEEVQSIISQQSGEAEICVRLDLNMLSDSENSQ

T11: NHERF3_1, Q5T2W1
T11 sequence (Q5T2W1 4-100, limits assumed, looked up): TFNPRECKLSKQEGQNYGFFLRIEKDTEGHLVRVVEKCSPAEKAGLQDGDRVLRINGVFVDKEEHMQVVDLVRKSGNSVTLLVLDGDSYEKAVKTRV

B1: CSPG4, Q6UVK1 (peptide)
chain: PALKNGQYWV
B2: DFNB31, Q9P202 (peptide)
chain: FLVTEFNVML

target: T1, DLG3_1, Q92796; experiment: holdup assay; design: key: below the threshold = too weak to quantify, mostly under pKd 3.1 to 4; details: plain residues with an end cap or a label only (N-terminal biotin on a linker: ado-ado)

Binder | pKd
B1 | below the threshold
B2 | below the threshold

target: GRASP, Q7Z6J2; experiment: holdup assay; design: key: below the threshold = too weak to quantify, mostly under pKd 3.1 to 4; details: plain residues with an end cap or a label only (N-terminal biotin on a linker: ado-ado)
Sequence (Q7Z6J2 96-193): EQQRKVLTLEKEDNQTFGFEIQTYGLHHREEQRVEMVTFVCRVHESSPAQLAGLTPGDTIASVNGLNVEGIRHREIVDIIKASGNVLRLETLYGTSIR

Binder | pKd
B1 | below the threshold
B2 | 3.72

target: T2, DFNB31_3, Q9P202; experiment: holdup assay; design: key: below the threshold = too weak to quantify, mostly under pKd 3.1 to 4; details: plain residues with an end cap or a label only (N-terminal biotin on a linker: ado-ado)

Binder | pKd
B1 | below the threshold
B2 | below the threshold

target: CASK, O14936; experiment: holdup assay; design: key: below the threshold = too weak to quantify, mostly under pKd 3.1 to 4; details: plain residues with an end cap or a label only (N-terminal biotin on a linker: ado-ado)
Sequence (O14936 487-570): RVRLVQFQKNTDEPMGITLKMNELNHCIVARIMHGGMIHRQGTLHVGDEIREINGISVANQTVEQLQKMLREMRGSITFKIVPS

Binder | pKd
B1 | below the threshold
B2 | below the threshold

target: DLG1_1, Q12959; experiment: holdup assay; design: key: below the threshold = too weak to quantify, mostly under pKd 3.1 to 4; details: plain residues with an end cap or a label only (N-terminal biotin on a linker: ado-ado)

Binder | pKd
B1 | below the threshold
B2 | below the threshold

target: T3, SNTA1, Q13424; experiment: holdup assay; design: key: below the threshold = too weak to quantify, mostly under pKd 3.1 to 4; details: plain residues with an end cap or a label only (N-terminal biotin on a linker: ado-ado)

Binder | pKd
B1 | below the threshold
B2 | 3.73

target: IL16_3, Q14005; experiment: holdup assay; design: key: below the threshold = too weak to quantify, mostly under pKd 3.1 to 4; details: plain residues with an end cap or a label only (N-terminal biotin on a linker: ado-ado)
Sequence (Q14005 1107-1207): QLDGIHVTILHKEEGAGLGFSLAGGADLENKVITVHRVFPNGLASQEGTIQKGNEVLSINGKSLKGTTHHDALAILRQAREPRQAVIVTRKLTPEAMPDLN

Binder | pKd
B1 | below the threshold
B2 | below the threshold

target: T4, PDZD2_2, O15018; experiment: holdup assay; design: key: below the threshold = too weak to quantify, mostly under pKd 3.1 to 4; details: plain residues with an end cap or a label only (N-terminal biotin on a linker: ado-ado)

Binder | pKd
B1 | 5.45
B2 | 3.63

target: DLG1_2, Q12959; experiment: holdup assay; design: key: below the threshold = too weak to quantify, mostly under pKd 3.1 to 4; details: plain residues with an end cap or a label only (N-terminal biotin on a linker: ado-ado)

Binder | pKd
B1 | below the threshold
B2 | below the threshold

target: MAGI2_2, Q86UL8; experiment: holdup assay; design: key: below the threshold = too weak to quantify, mostly under pKd 3.1 to 4; details: plain residues with an end cap or a label only (N-terminal biotin on a linker: ado-ado)
Sequence (Q86UL8 410-522): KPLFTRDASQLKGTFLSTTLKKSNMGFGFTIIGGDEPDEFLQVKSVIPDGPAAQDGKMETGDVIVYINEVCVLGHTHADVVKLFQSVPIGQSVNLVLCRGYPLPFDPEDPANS

Binder | pKd
B1 | below the threshold
B2 | below the threshold

target: T5, NHERF3_4, Q5T2W1; experiment: holdup assay; design: key: below the threshold = too weak to quantify, mostly under pKd 3.1 to 4; details: plain residues with an end cap or a label only (N-terminal biotin on a linker: ado-ado)

Binder | pKd
B1 | below the threshold
B2 | 4.55

target: T6, MPP6, Q9NZW5; experiment: holdup assay; design: key: below the threshold = too weak to quantify, mostly under pKd 3.1 to 4; details: plain residues with an end cap or a label only (N-terminal biotin on a linker: ado-ado)

Binder | pKd
B1 | 3.83
B2 | below the threshold

target: NHERF2_2, Q15599; experiment: holdup assay; design: key: below the threshold = too weak to quantify, mostly under pKd 3.1 to 4; details: plain residues with an end cap or a label only (N-terminal biotin on a linker: ado-ado)
Sequence (Q15599 142-238): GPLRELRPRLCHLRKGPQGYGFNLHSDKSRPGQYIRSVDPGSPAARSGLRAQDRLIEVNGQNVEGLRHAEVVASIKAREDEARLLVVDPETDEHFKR

Binder | pKd
B1 | below the threshold
B2 | 4.04

target: FRMPD3, Q5JV73; experiment: holdup assay; design: key: below the threshold = too weak to quantify, mostly under pKd 3.1 to 4; details: plain residues with an end cap or a label only (N-terminal biotin on a linker: ado-ado)
Sequence (Q5JV73 12-100): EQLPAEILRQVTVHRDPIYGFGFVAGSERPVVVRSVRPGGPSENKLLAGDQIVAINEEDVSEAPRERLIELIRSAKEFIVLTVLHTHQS

Binder | pKd
B1 | below the threshold
B2 | 3.97

target: FRMPD2_3, Q68DX3; experiment: holdup assay; design: key: below the threshold = too weak to quantify, mostly under pKd 3.1 to 4; details: plain residues with an end cap or a label only (N-terminal biotin on a linker: ado-ado)
Sequence (Q68DX3 1073-1166): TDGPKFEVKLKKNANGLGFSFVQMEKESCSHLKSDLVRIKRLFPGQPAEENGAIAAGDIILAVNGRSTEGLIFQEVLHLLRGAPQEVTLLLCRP

Binder | pKd
B1 | below the threshold
B2 | below the threshold

target: GRIP2_6, Q9C0E4; experiment: holdup assay; design: key: below the threshold = too weak to quantify, mostly under pKd 3.1 to 4; details: plain residues with an end cap or a label only (N-terminal biotin on a linker: ado-ado)
Sequence (Q9C0E4 648-740): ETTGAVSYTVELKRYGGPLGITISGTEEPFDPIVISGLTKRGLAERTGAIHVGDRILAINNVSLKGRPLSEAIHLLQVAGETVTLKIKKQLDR

Binder | pKd
B1 | 3.58
B2 | 4.06

target: GOPC, Q9HD26; experiment: holdup assay; design: key: below the threshold = too weak to quantify, mostly under pKd 3.1 to 4; details: plain residues with an end cap or a label only (N-terminal biotin on a linker: ado-ado)

Binder | pKd
B1 | below the threshold
B2 | below the threshold

target: T7, SIPA1L2, Q9P2F8; experiment: holdup assay; design: key: below the threshold = too weak to quantify, mostly under pKd 3.1 to 4; details: plain residues with an end cap or a label only (N-terminal biotin on a linker: ado-ado)

Binder | pKd
B1 | below the threshold
B2 | below the threshold

target: MAST1, Q9Y2H9; experiment: holdup assay; design: key: below the threshold = too weak to quantify, mostly under pKd 3.1 to 4; details: plain residues with an end cap or a label only (N-terminal biotin on a linker: ado-ado)
Sequence (Q9Y2H9 962-1065): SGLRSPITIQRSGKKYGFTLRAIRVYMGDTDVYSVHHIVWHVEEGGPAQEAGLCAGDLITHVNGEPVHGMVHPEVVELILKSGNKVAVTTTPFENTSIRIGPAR

Binder | pKd
B1 | below the threshold
B2 | 3.89

target: T8, LIN7A, O14910; experiment: holdup assay; design: key: below the threshold = too weak to quantify, mostly under pKd 3.1 to 4; details: plain residues with an end cap or a label only (N-terminal biotin on a linker: ado-ado)

Binder | pKd
B1 | below the threshold
B2 | below the threshold

target: T9, MPDZ_5, O75970; experiment: holdup assay; design: key: below the threshold = too weak to quantify, mostly under pKd 3.1 to 4; details: plain residues with an end cap or a label only (N-terminal biotin on a linker: ado-ado)

Binder | pKd
B1 | 4.2
B2 | below the threshold

target: DLG1_3, Q12959; experiment: holdup assay; design: key: below the threshold = too weak to quantify, mostly under pKd 3.1 to 4; details: plain residues with an end cap or a label only (N-terminal biotin on a linker: ado-ado)

Binder | pKd
B1 | below the threshold
B2 | below the threshold

target: GRID2IP_2, A4D2P6; experiment: holdup assay; design: key: below the threshold = too weak to quantify, mostly under pKd 3.1 to 4; details: plain residues with an end cap or a label only (N-terminal biotin on a linker: ado-ado)
Sequence (A4D2P6 272-370): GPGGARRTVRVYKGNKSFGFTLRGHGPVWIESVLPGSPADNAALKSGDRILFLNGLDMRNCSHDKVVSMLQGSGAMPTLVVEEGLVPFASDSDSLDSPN

Binder | pKd
B1 | 3.75
B2 | below the threshold

target: GRIP2_5, Q9C0E4; experiment: holdup assay; design: key: below the threshold = too weak to quantify, mostly under pKd 3.1 to 4; details: plain residues with an end cap or a label only (N-terminal biotin on a linker: ado-ado)
Sequence (Q9C0E4 544-642): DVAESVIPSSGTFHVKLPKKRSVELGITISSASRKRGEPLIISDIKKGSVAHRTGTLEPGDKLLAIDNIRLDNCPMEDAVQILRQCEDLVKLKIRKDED

Binder | pKd
B1 | below the threshold
B2 | below the threshold

target: HTRA2, O43464; experiment: holdup assay; design: key: below the threshold = too weak to quantify, mostly under pKd 3.1 to 4; details: plain residues with an end cap or a label only (N-terminal biotin on a linker: ado-ado)
Sequence (O43464 355-458): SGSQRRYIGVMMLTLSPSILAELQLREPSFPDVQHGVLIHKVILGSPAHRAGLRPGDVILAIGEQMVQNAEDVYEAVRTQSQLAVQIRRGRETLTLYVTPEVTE

Binder | pKd
B1 | 4.72
B2 | below the threshold

target: T10, PCLO, Q9Y6V0; experiment: holdup assay; design: key: below the threshold = too weak to quantify, mostly under pKd 3.1 to 4; details: plain residues with an end cap or a label only (N-terminal biotin on a linker: ado-ado)

Binder | pKd
B1 | below the threshold
B2 | below the threshold

target: T11, NHERF3_1, Q5T2W1; experiment: holdup assay; design: key: below the threshold = too weak to quantify, mostly under pKd 3.1 to 4; details: plain residues with an end cap or a label only (N-terminal biotin on a linker: ado-ado)

Binder | pKd
B1 | below the threshold
B2 | 4.88
